In one series the test system is MCF7. As to the kind of experiment: percentage of EdU-negative (G0-arrested) nuclei per well, 72 h; higher = more G0 arrest. Particulars: reference: sequence is the full UniProt precursor, the tested protein was the secreted form or ectodomain.
In the next series the test system is hTERT-HMEC. The series is described as above. Particulars: reference: sequence is the full UniProt precursor, the tested protein was the secreted form or ectodomain.
Setting [1] is: protein concentration 0.0257143 µM.
[2] abbreviates: protein concentration 0.257143 µM.
The mark [3] stands for this setting: protein concentration 0.0217725 µM.
[4] abbreviates: protein concentration 0.217725 µM.
Setting [5] is: protein concentration 0.0155 µM.
Where [6] appears, read: protein concentration 0.0225 µM.
Setting [7] is: protein concentration 0.03125 µM.
Where [8] appears, read: protein concentration 0.3125 µM.

The record followed here is the supplement of paper PMC11316812.

± gives the standard deviation of the averaged measurements.
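Note: secreted proteins added to cultured cells, EdU pulse at the end, nuclei found by Hoechst imaging, EdU status from nuclear versus surrounding ring intensity ratio, PBS as neutral control.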

In the case of “MKSLTWILGLWALAACFTPGESQRGPRGPYPPGPLAPPQPFGPGFVPPPPPPPYGPGRIPPPPPAPYGPGIFPPPPPQP”, the “percentage of EdU-negative” value with MCF7 (setting [1]) came out at 26.1 ± 0.69%; with MCF7 (setting [2]) it was 29.6 ± 2.1%; in the series with hTERT-HMEC (setting [1]), 5.18 ± 0.72%; in the series with hTERT-HMEC (setting [2]), 6.25 ± 0.39%.
For “MENPSPAAALGKALCALLLATLGAAGQPLGGESICSARALAKYSITFTGKWSQTAFPKQYPLFRPPAQWSSLLGAAHSSDYSMWRKNQYVSNGLRDFAERGEAWALMKEIEAAGEALQSVHAVFSAPAVPSGTGQTSAELEVQRRHSLVSFVVRIVPSPDWFVGVDSLDLCDGDRWREQAALDLYPYDAGTDSGFTFSSPNFATIPQDTVTEITSSSPSHPANSFYYPRLKALPPIARVTLVRLRQSPRAFIPPAPVLPSRDNEIVDSASVPETPLDCEVSLWSSWGLCGGHCGRLGTKSRTRYVRVQPANNGSPCPELEEEAECVPDNCV [Q9BUD6]”, the “percentage of EdU-negative” value was determined as 23.8 ± 0.42% in the series with MCF7 (setting [3]), 26.9 ± 1.5% with MCF7 (setting [4]), 4.15 ± 0.79% in the series with hTERT-HMEC (setting [3]) and 7.892 ± 0.078% in the series on hTERT-HMEC (setting [4]).
For “MTVARPSVPAALPLLGELPRLLLLVLLCLPAVWGDCGLPPDVPNAQPALEGRTSFPEDTVITYKCEESFVKIPGEKDSVICLKGSQWSDIEEFCNRSCEVPTRLNSASLKQPYITQNYFPVGTVVEYECRPGYRREPSLSPKLTCLQNLKWSTAVEFCKKKSCPNPGEIRNGQIDVPGGILFGATISFSCNTGYKLFGSTSSFCLISGSSVQWSDPLPECREIYCPAPPQIDNGIIQGERDHYGYRQSVTYACNKGFTMIGEHSIYCTVNNDEGEWSGPPPECRGKSLTSKVPPTVQKPTTVNVPTTEVSPTSQKTTTKTTTPNAQATRSTPVSRTTKHFHETTPNKGSGTTSGTTRLLSGHTCFTLTGLLGTLVTMGLLT”, the “percentage of EdU-negative” value with MCF7 (setting [5]) came out at 26.2 ± 1%; in the series with MCF7 (protein concentration 0.155 µM), 26.1 ± 1.8%; in the series on hTERT-HMEC (setting [5]), 4.51 ± 0.44%; in the series on hTERT-HMEC (protein concentration 0.155 µM), 7.07 ± 0.42%.
For the sequence “MWLPRVSSTAVTALLLAQTFLLLFLVSRPGPSSPAGGEARVHVLVLSSWRSGSSFVGQLFNQHPDVFYLMEPAWHVWTTLSQGSAATLHMAVRDLVRSVFLCDMDVFDAYLPWRRNLSDLFQWAVSRALCSPPACSAFPRGAISSEAVCKPLCARQSFTLAREACRSYSHVVLKEVRFFNLQVLYPLLSDPALNLRIVHLVRDPRAVLRSREQTAKALARDNGIVLGTNGTWVEADPGLRVVREVCRSHVRIAEAATLKPPPFLRGRYRLVRFEDLAREPLAEIRALYAFTGLSLTPQLEAWIHNITHGSGPGARREAFKTSSRNALNVSQAWRHALPFAKIRRVQELCAGALQLLGYRPVYSEDEQRNLALDLVLPRGLNGFTWASSTASHPRN [Q9GZX3]”, the “percentage of EdU-negative” value amounted to 24.3 ± 0.37% in the series on MCF7 (setting [6]), 31 ± 0.51% in the series with MCF7 (protein concentration 0.225 µM), 5.21 ± 0.9% with hTERT-HMEC (setting [6]) and 23.2 ± 3.6% in the series on hTERT-HMEC (protein concentration 0.225 µM).
On to “MPKGRQKVPHLDAPLGLPTCLWLELAGLFLLVPWVMGLAGTGGPDGQGTGGPSWAVHLESLEGDGEEETLEQQADALAQAAGLVNAGRIGELQGHYLFVQPAGHRPALEVEAIRQQVEAVLAGHEAVRWHSEQRLLRRAKRSVHFNDPKYPQQWHLNNRRSPGRDINVTGVWERNVTGRGVTVVVVDDGVEHTIQDIAPNYSPEGSYDLNSNDPDPMPHPDVENGNHHGTRCAGEIAAVPNNSFCAVGVAYGSRIAGIRVLDGPLTDSMEAVAFNKHYQINDIYSCSWGPDDDGKTVDGPHQLGKAALQHGVIAGRQGFGSIFVVASGNGGQHNDNCNYDGYANSIYTVTIGAVDEEGRMPFYAEECASMLAVTFSGGDKMLRSIVTTDWDLQKGTGCTEGHTGTSAAAPLAAGMIALMLQVRPCLTWRDVQHIIVFTATRYEDRRAEWVTNEAGFSHSHQHGFGLLNAWRLVNAAKIWTSVPYLASYVSPVLKENKAIPQSPRSLEVLWNVSRMDLEMSGLKTLEHVAVTVSITHPRRGSLELKLFCPSGMMSLIGAPRSMDSDPNGFNDWTFSTVRCWGERARGTYRLVIRDVGDESFQVGILRQWQLTLYGSVWSAVDIRDRQRLLESAMSGKYLHDDFALPCPPGLKIPEEDGYTITPNTLKTLVLVGCFTVFWTVYYMLEVYLSQRNVASNQVCRSGPCHWPHRSRKAKEEGTELESVPLCSSKDPDEVETESRGPPTTSDLLAPDLLEQGDWSLSQNKSALDCPHQHLDVPHGKEEQIC”, for which the “percentage of EdU-negative” value in the series on MCF7 (setting [6]) is 25.2 ± 2.4%; with MCF7 (protein concentration 0.225 µM), 25.9 ± 0.42%; in the series on hTERT-HMEC (setting [6]), 4.85 ± 0.1%; in the series on hTERT-HMEC (protein concentration 0.225 µM), 5.83 ± 0.0087%.
For “MAKVFSFILVTTALTMGREISALEDCAQEQMRLRAQVRLLETRVKQQQVKIKQLLQENEVQFLDKGDENTVIDLGSKRQYADCSEIFNDGYKLSGFYKIKPLQSPAEFSVYCDMSDGGGWTVIQRRSDGSENFNRGWKDYENGFGNFVQKHGEYWLGNKNLHFLTTQEDYTLKIDLADFEKNSRYAQYKNFKVGDEKNFYELNIGEYSGTAGDSLAGNFHPEVQWWASHQRMKFSTWDRDHDNYEGNCAEEDQSGWWFNRCHSANLNGVYYSGPYTAKTDNGIVWYTWHGWWYSLKSVVMKIRPNDFIPNVI”, the “percentage of EdU-negative” value in the series with MCF7 (setting [7]) was found to be 24.5 ± 4.1%; in the series with MCF7 (setting [8]) it was 22.8 ± 2.3%; in the series with hTERT-HMEC (setting [7]) it was 6.18 ± 1.3%; in the series with hTERT-HMEC (setting [8]), 5.22 ± 0.14%.
